This series in a line: soluble on expression in E. coli; label from the status in PepcDB or PDB records.
Take “MSKVALIRCESYDYDAVKSAVKRGLDLIGGPHRFAAPNEKILLKPNLLSADPPERCSTTHPSVFKAVAEIFMEAGITNLSYGDSPGIHKPITAARKNGIEKAANELGIKLADFLEGKEVFFENAIQNKKFIIANGVLESDGIISLPKLKTHGFARMTGCVKNQFGCIPGPLKGEFHVRIPSIIDFSKMLVDLNVYLKPRLFVMDGIIAMEGNGPRGGTPRKINAILLSEDPIALDATVCRMINLNPEFVPTIVFGKEAGLGTYDENEIEILGDDIQSFITYDFDVRREPVKPFKPGGAIQFFRNFIVPKPYILKNKCIKCGVCVNACPVKPKAVDWHNGNKKEPPTYIYKRCIRCYCCQELCPESAIHLKVPFIRKFFYNPK”: the “soluble on expression in E. coli” value is listed as “not soluble”. For “AAGTAKGHNPTEFPTIYDASSAPTAANTTVGIITIGGVSQTLQDLQQFTSANGLASVNTQTIQTGSSNGDYSDDQQGQGEWDLDSQSIVGSAGGAVQQLLFYMADQSASGNTGLTQAFNQAVSDNVAKVINVSLGWCEADANADGTLQAEDRIFATAAAQGQTFSVSSGDEGVYECNNRGYPDGSTYSVSWPASSPNVIAVGGTTLYTTSAGAYSNETVWNEGLDSNGKLWATGGGYSVYESKPSWQSVVSGTPGRRLLPDISFDAAQGTGALIYNYGQLQQIGGTSLASPIFVGLWARLQSANSNSLGFPAASFYSAISSTPSLVHDVKSGNNGYGGYGYNAGTGWDYPTGWGSLDIAKLSAYIRSNGFGH” the value was “soluble”; for “GAMHTFYGTRLLNPKPVDFALEGPQGPVRLSQFQDKVVLLFFGFTRCPDVCPTTLLALKRAYEKLPPKAQERVQVIFVSVDPERDPPEVADRYAKAFHPSFLGLSGSPEAVREAAQTFGVFYQKSQYRGPGEYLVDHTATTFVVKEGRLVLLYSPDKAEATDRVVADLQALL”, “soluble”.

With “ATGGGTAATAATTTAATGCAGACGGACCTTTCCGTCTGGGGTATGTATCARCACGCCGATATTGTCGTTAAGTGCGTGATGATTGGGCTTATTTTGGCCTCCGTAGTCACCTGGGCAATCTTCTTCAGTAAGAGCGTAGAGTTCTTTAATCAGAAGCGTCGCCTTAAGCGCGAGCAGCAACTGCTGGCTGAAGCGCGTTCCTTAAACCAGGCCAACGATATCGCCGCTGATTTTGGTAGCAAAAGCTTAAGCCTGCATTTGCTCAATGAAGCGCAGAATGAGCTGGAACTGTCAGAAGGCAGCGACGATAACGAAGGTATTAAAGAACGTACCAGCTTCCGTCTGGAGCGTCGGGTCGCCGCAGTAGGTCGTCAAATGGGCCGCGGTAACGGCTATCTGGCAACCATCGGCGCGATTTCGCCGTTCGTTGGGCTGTTTGGTACGGTCTGGGGCATCATGAACAGCTTTATTGGTATCGCGCAAACGCAGACCACTAACCTGGCAGTCGTTGCGCCGGGTATCGCAGAAGCTCTGTTAGCAACGGCAATCGGTCTGGTGGCAGCGATTCCGGCGGTCGTTATCTATAACGTATTCGCGCGTCAGATTGGCGGCTTTAAAGCGATGCTGGGTGATGTCGCAGCGCAGGTATTGTTGCTGCAAAGCCGTGACCTGGATCTGGAAGCCAGCGCCGCTGCGCATCCGGTTCGTGTCGCACAAAAATTACGCGCAGGATAA”, the “soluble on expression in E. coli” value is on record as “not soluble”. As for “MGSDKIHHHHHHMMGLPTLEQMQFQHAAAQLNALHAELIDDDRLEEWPDLFEEKCQYSVISAENHNRSLNLAAVFCDSRGMLVDRIVSLRRANIFPAHSYRHILGPTRVKSTSGQIVTTQTNYVVLMTRNDGQTSIYNSGKYVDQIDVSGAAPRFLSKTAIFDTHLIDTMMVRPI”, the “soluble on expression in E. coli” value was “not soluble”.

Turning to “PLYLGLMSGTSIDGIDAALVRINANPITHCELIAAQTSAWDPNLRTTLLELSQGQNTASLDQLGWLDAQVGLAFATAANTLIAKTGIKHTQIRAIGSHGQTIRHRPHGDLPFTWQLGDAHRIAELTGITTVADFRRRDVAAGGQGAPLMPAFHLAILGSANENRAVLNLGGIANLTLIPMTGPVLGFDTGPANALLDSWYQRHHHETFDQSGNFAASGKINQKLLACLLDDPWFTLPPPKSTGREQFHLDWMTKQLEPTPPSPADVQATLLELTAVTVADALLRQQPKTTRLLICGGGAHNPVLMARLATHLPNVTVESIQTYGLNPDYLEAMGFAWLAAQTLDGQPSNLPSVTGARGLRLLGAIHPA”, the “soluble on expression in E. coli” value is given as “not soluble”. For “MADADLVMTGTVLTVDDARPTAEAIAVADGRVIAVGDRSEVAGLVGANTRVIDLGAGCVMPGFVEAHGHPLLEAVVLSDRFVDIRPVTMRDADDVVAAIRGEVARRGPAGAYLVGWDPLLQSGLGEPTLTWLDSLAPNGPLVIIHNSGHKAYFNSHAAWLNGLTRDTADPKGAKYGRDGNGELDGTAEEIGAILPLLAGVADPSNFGAMLRAECARLNRAGLTTCSEMAFDPGYRPMVEAVRAELTVRLCTYEISNARMCTDATPGQGDDMLRQVGIKIWVDGSPWVGNIDLTFPYLDTPATRAIGVPPGSRGCANYTREQLAEIVGAYFPRGWQIACHVHGDGGVDTILDVYEEALRRNPRDDHRLRLEHVGAIRPDQLRRAAELGVTCSIFVDQIHYWGDVIVDDLFGAQRGSRWMPAGSAVAAGMRISLHNDPPVTPEEPLRNISVAATRVAPSGRVLAPEERLTVEQAIRAQTIDAAWQLFAEDAIGSLQVGKYADMVVLSADPRTVPPEQIADLAVRATFLAGRQVYRRLEHHHHHH”, the “soluble on expression in E. coli” value is recorded as “not soluble”. For the sequence “MSLLTPEQIAAAQKANIESLFGLTTKAFEGVEKLIELNLQVVKSTLAESQENVQRALSVKDAQELLALQASLTQPIAEKVLAYGRHVYEIASATQAEFAKVAEAQYEEQNRKVQALVDNVAKNAPAGSETAVAALKSAINAANTTYETVQK”, the “soluble on expression in E. coli” value was “not soluble”. “MGSDKIHHHHHHMREIDVHPAFTDLNGSGPDPDLSPLPVVARVGSYSMGWRVEAHAHQRGQLMFVTNGSMRVETRDGSWITPPGRACWIPSAAVHSAIYTQASKMQTVLIAPELLETLPKRCCVIKLTPLLRELVSQAVAINNQYTLHSREHRLMQVLVDQISTAQQAPLFLPEGRDPRLRRVTESLHQNPGDDRSIEAWAQIAGASARTLARLFQKETGMTYSSWRQQLCLIRAVEMLTEGASVTNIALALGYESTAGFTSMFTRSMGESPSNYLTRWSQETTASE”: the “soluble on expression in E. coli” value is given as “not soluble”. For “MLTLNYYVEITATPQRVWRVLTDAELYKRWAQAFSPQSQFEGEWEEGSDITFFDPDMGGTRAVIDSVQPLHRLEFHHVAIFNPDNRQQLDADIAAKWIGSREIYQIDTEDERLLLNITIHTHSDFVSMFNNGWEKALPLIKSICEETDSQLEHHHHHH” the value was “soluble”; for “MAHHHHHHMPRALRYCRPRRDPDESLLAYLSTKFTYLADAQWRQHIAAGDISVNGETLTDGSYVLRQGDMLRFAPPRSLEPPVDSEHIEVLYEDSTLLVVTKNGNLPVAEGGRYCENTLVEVLRRRGTAAFYTASTRTSFGTTHEDTEKVSDSPTHAGEIVETAARAEGSTAMDASGKGAEIPTSPPSRRRLEDGSHGIFAVGSAPCASVPSPKASTVQQRSSLDLFTVQRLDKETSGVVVLAKNSVSARTLASQLEAQTKGCADAVESRLRERGHAVALSSDAFDELLRLKAQSVHKTYTAVLRGAAPEDHTFVVVNCMDCMAKHPTHSWEAQHTQLKKLKMCCEPVKEMLFSHAAAALPQSPKEQQTRWGRLAVTRIRVLASNKKLGLTCVQVELLTGRSHQIRLHCAAVGYPVLGDKLYTTMTPGREGGATAVSDAVYLERVRREDDPYLPIDDDVSGAGGSSRSGKMWCRRHLLHATRIIFAHPDVSPARLMTFMASPAPFFTADVRFECEEDSLLFSQWLTRAVSRPLERAEASQS”, “not soluble”. As to “MGSDKIHHHHHHMTKKILFCATVDYHFKAFHLPYFKWFKQMGWEVHVAANGQTKLPYVDEKFSIPIRRSPFDPQNLAVYRQLKKVIDTYEYDIVHCHTPVGGVLARLAARQARRHGTKVLYTAHGFHFCKGAPMKNWLLYYPVEKWLSAYTDCLITINEEDYIRAKGLQRPGGRTQKIHGIGVNTERFRPVSPIEQQRLREKHGFREDDFILVYPAELNLNKNQKQLIEAAALLKEKIPSLRLVFAGEGAMEHTYQTLAEKLGASAHVCFYGFCSDIHELIQLADVSVASSIREGLGMNVLEGMAAEQPAIATDNRGHREIIRDGENGFLIKIGDSAAFARRIEQLYHKPELCRKLGQEGRKTALRFSEARTVEEMADIYSAYMDMDTKEKSV”, the “soluble on expression in E. coli” value is “not soluble”. The same measure for “PAFALTSPWAGSDAAAIPDHGTVCKGQWQGQEVLGMRVTWDKRYITLAPVCTLLGLAFRLYDPDGLLGGRKDLGITCALVPHDHPGVDTGRRHFPLNAMFMNGPTRGTDVFMPLEFIIDG”: “not soluble”; for “MPYRKYREKKYETKYREAFKLFQEKIGITFTDEKLLIQAFTHSSYVNEHRKKPHEDNERLEFLGDAVLELTVSQYLFQKYPTMSEGELTKLRAAIVCEPSLVRFANELSFGSLVLLGKGEEMTGGRERPALLADVFEAFIGALYLDQGLETVWGFLKEIVYPKINEGAFSHVMDYKSQLQELIQRDGSGNIEYQILQEKGPAHNREFVSRVTLNNVALGLGSGKSKKEAEQQAAAEALKKLKEQL”: “soluble”; for “MISLTQQVSAVRLDTHKSDTFEQNDLVLDNTGAVLSGSRDALIRRLVPTRDFCPDESYIFSLLVNIRTFISPHELMQKIVQYCMFAQNADSHNFAKEGRGRMFAHILRLCSEWATNIPYDFKTEYMRTRLNELLRLCAVDKTYQQKTTELQSTLRSSLNKLDRYEKAVANLQKALSENTNLPEQSDSMTGLFVLCNDAKTVAQQLTHIEMERFSMVGVDEIVQSLASDPLSEIGRHSKNKEGTISSISFYIEWFNRLSAFAAIEVLKQTKKRNRVAVFEFMIDIAKECCEIGNFNSMMAIVAGLSLPAVSRLKKTWCRVEKAKLEILQHQLDPSGNFLSYRATIKAAQWRADSARGNQQKIVIPFFVLLLKDLFLIYHGHPRILPNAHLNFMAFNQLAEQLRDVIQWKSTVCTFEKNPQVLQYLLITSVSGEKDSMLMSFECEPPESSSERDQHKKLKGGK”: “not soluble”. “MREYKLVVLGSGGVGKSALTVQFVQGIFVDEYDPTIEDSYRKQVEVDCQQCMLEILDTAGTEQFTAMRDLYMKNGQGFALVYSITAQSTFNDLQDLREQILRVKDTEDVPMILVGNKCDLEDERVVGKEQGQNLARQWCNCAFLESSAKSKINVNEIFYDLVRQINR”: the “soluble on expression in E. coli” value is “soluble”. For “GHMAGGTKRLPRAVREQQMLDAAVDVFSDRGFHETSMDAIAAKAEISKPMLYLYYGSKDELFAACIQREGLRFVEALAPAGDPGLSPREQLRRALEGFLGFVGKHRKSWMVLYRQAMGQQAFVGSVQSSRDRLIELTAHLLESSTKDPEPGQDFELIAIALVGAGEAVADRVAGGEIEVDAAADLLESLAWRGLAGKKKPEGS”, the “soluble on expression in E. coli” value was “soluble”. On to “MASNYNSGLKIGAWVGTQPSESAIKSFQELQGRKLDIVHQFINWSTDFSWVRPYADAVYNNGSILMITWEPWEYNTVDIKNGKADAYITRMAQDMKAYGKEIWLRPLHEANGDWYPWAIGYSSRVNTNETYIAAFRHIVDIFRANGATNVKWVFNVNCDNVGNGTSYLGHYPGDNYVDYTSIDGYNWGTTQSWGSQWQSFDQVFSRAYQALASINKPIIIAEFASAEIGGNKARWITEAYNSIRTSYNKVIAAVWFHENKETDWRINSSPEALAAYREAIGALEHHHHHH”, for which the “soluble on expression in E. coli” value is given as “soluble”.

Source of the values: the DeepSol protein solubility set.
